Reference: the supplement of paper PMC10567573
± gives the standard deviation.

Experiment: protein stability index of a GFP-peptide fusion (GPS, HEK-293T) (PSI 1-6); higher = more stable
[1] = treatment: DMSO, c terminus: a fixed tail appended
[2] = treatment: MLN4924 1 uM, 8 h, c terminus: a fixed tail appended
[3] = treatment: DMSO, c terminus: native
[4] = treatment: MLN4924 1 uM, 8 h, c terminus: native
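Further: 24-mer peptide tiles fused after GFP, lentivirally expressed, FACS-sorted into six equal bins by GFP/DsRed ratio, decoded by Illumina sequencing, PSI is the read-weighted mean bin number.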

| Sequence | protein stability index [1] | protein stability index [2] | protein stability index [3] | protein stability index [4] |
| --- | --- | --- | --- | --- |
| NQGLNVMVWNQNGKSPSITFEYTL [ADAMTSL2] | 3.01 ± 0.3 | 2.64 ± 0.53 |  |  |
| LVVASGVIYCLGGYDGLNILNSVE [KLHL12] | 3.28 ± 0.25 | 3.03 ± 0.16 |  |  |
| KEEKEDEISLEDLIERERSALGPN [ZC3H15] | 5.31 ± 0.35 | 5.26 ± 0.37 |  |  |
| DYSDHPSGGSYRDSYESYGNSRSA [RBMX] | 4.43 ± 0.36 | 4.44 ± 0.26 |  |  |
| MRAQAQEQERRERREQAAAAPFPS [TFE3] | 5.09 ± 0.26 | 4.91 ± 0.22 |  |  |
| QIEKTTNREACRDLSGRRLRDVNH [SDE2] | 4.18 ± 0.24 | 4.11 ± 0.6 |  |  |
| RFHDPSPAQSHTLQANDVFHKQQW [NET1] | 3.33 ± 0.11 | 3.4 ± 0.29 |  |  |
| KQMSFLEKRGCPRTALEYCKLILS [TCF25] | 3.12 ± 1 | 3.02 ± 0.2 |  |  |
| YKPEQPLVRLRGGAYIGEGRVEVL [LOXL2] | 3.12 ± 0.16 | 2.97 ± 0.47 |  |  |
| LGYCLLLMLAGMGLHYIAFRKVKQ [DNAJC4] | 3.18 ± 0.28 | 3.11 ± 0.38 |  |  |
| SGAGGTGGPAGQAGRGGAAGTAGV [MYOZ1] | 5.07 ± 0.2 | 4.93 ± 0.17 |  |  |
| LVLVVNTLRRIQASMAPAAALPPV [SERTAD1] | 2.35 ± 0.099 | 2.33 ± 0.2 |  |  |
| VEEVVYDLSIRGFNKETAAACVEK [TSN] | 4.63 ± 0.22 | 4.51 ± 0.56 |  |  |
| MISTYEFGKSFFQRLNQDRLLGG [SLC25A39] |  |  | 3.21 ± 0.83 | 2.44 ± 0.27 |
| DCSGLVLLCLFFGIPWEAGARQIS [PCDHGA10] | 3.45 ± 0.4 | 3.19 ± 0.2 |  |  |
| NLLEKFFEMKKGQCKDALEIYKRF [SNAP91] | 2.41 ± 0.46 | 2.69 ± 0.8 |  |  |
| VGAAYASLRRRGASAAARLGCNRQ [TRIM14] | 3.36 ± 0.17 | 4.09 ± 0.39 |  |  |
| TSSNLGSQYQCENGVSGPSQDLLP [TBX5] | 4.78 ± 0.16 | 4.6 ± 0.15 |  |  |
| DWGPCSGSCGQGRTIRHVYCKTSD [ADAMTSL2] | 3.43 ± 0.25 | 3.44 ± 0.33 |  |  |
| RLKLMQQNPAGELEGFQAQGHPPS [ATE1] | 4.29 ± 0.18 | 4.31 ± 0.12 |  |  |
| SSNVSLSLFVLDQNDNAPEILYPA [PCDHGA10] | 2.48 ± 0.13 | 2.38 ± 0.29 |  |  |
| SWNSQSSLLDVQRVPSFESFEDDC [ETS2] | 4.84 ± 0.17 | 4.67 ± 0.13 |  |  |
| GGTVKLADFGLARIYSYQMALTPV [CDK4] | 2.36 ± 0.27 | 2.17 ± 0.11 |  |  |

| Sequence | protein stability index [1] | protein stability index [2] | protein stability index [3] | protein stability index [4] |
| --- | --- | --- | --- | --- |
| SLVQLQASHQQQVLPPRQPSALVP [MYBL2] | 3.54 ± 0.23 | 3.63 ± 0.28 |  |  |
| GLSQAPQPLADEGPPGRSIGGAAP [SERTAD1] | 5.05 ± 0.31 | 5.29 ± 0.21 |  |  |
| NTNSDPLDPSFPVEFVRHGDIIRL [POMT2] | 2.69 ± 0.38 | 2.86 ± 0.28 |  |  |
| SHSNITGIVEVILGETKAYVFFEK [TRIB1] | 2.41 ± 1 | 1.9 ± 0.58 |  |  |
| CDALRTLAEARRLFPGRVSVDLML [RSAD1] | 2.05 ± 0.33 | 2.03 ± 0.37 |  |  |
| ILRAIGKGSFGKVCIVQKNDTKKM [STK32A] | 2.4 ± 0.45 | 2.56 ± 0.22 |  |  |
| LASRNTLFNLSNFLDKSGSHGYDM [SNAP91] | 2.2 ± 0.26 | 2.61 ± 0.16 |  |  |
| ATYLRCQLLLIKALQEKLWNVAAP [INTS4] | 3.16 ± 0.3 | 2.9 ± 0.39 |  |  |
| AYMDRRDHPLPEVAHVKHLSASQK [COX4I1] | 4.34 ± 0.32 | 4.6 ± 0.32 |  |  |
| HYANLNGLYGSTVDHQGVSWYHWK [TNXB] | 2.5 ± 0.14 | 2.8 ± 0.66 |  |  |
| LFYFFLYQYCSIHCSDRKQVRNIA [CSTF3] | 2.92 ± 0.83 | 2.61 ± 0.33 |  |  |
| EFKRLASSKAHTSRFISANLPCNK [PTPRD] | 2.88 ± 0.1 | 2.97 ± 0.41 |  |  |
| NTFFCHSNMCINNTLVCNGLQNCV [NETO1] | 2.13 ± 0.41 | 2.07 ± 0.38 |  |  |
| SGYALAEDGKRCVAVDYCASENHG [MATN2] | 4.28 ± 0.64 | 4.36 ± 0.21 |  |  |
| GPGPQLRRGWRPSSREDSLEAGLP [CHGA] | 3.86 ± 0.14 | 4.24 ± 0.31 |  |  |
| VNDKRRKKSGEKEQHISKCKKAFR [KMT2E] | 3.76 ± 0.14 | 3.86 ± 0.27 |  |  |
| PGYLPYSPEPPSLYGALNPQYEFK [IRX6] | 2.87 ± 0.36 | 3.16 ± 0.33 |  |  |
| DYDDGFSMKHTATARFQRNHRLIS [SMARCE1] | 2.99 ± 0.1 | 3.19 ± 0.31 |  |  |
| LFLSHVLALGLGIYIGKRLSTPSA [BNIP3L] | 2.86 ± 0.86 | 2.94 ± 0.55 |  |  |
| SQNIQEDDLQQLQLFTEYGRLAMD [ATL3] | 4.3 ± 0.27 | 4.09 ± 0.47 |  |  |
| MQRMIQQFAAEYTSKNSSTQDPSQ [LCOR] | 3.69 ± 0.41 | 3.68 ± 0.45 |  |  |
| RDHIPRGKEELESLGGGKTPPGR [MOG] |  |  | 3.87 ± 0.1 | 4.09 ± 0.42 |
| CNECAKLIIQAGIKEVIFMSDKYH [DCTD] | 2.01 ± 0.81 | 2.43 ± 0.41 |  |  |

| Sequence | protein stability index [1] | protein stability index [2] | protein stability index [3] | protein stability index [4] |
| --- | --- | --- | --- | --- |
| LVLKVLWNDFLMCYSSRPLLCWSV [SLC19A2] | 3.19 ± 0.48 | 3.45 ± 0.53 |  |  |
| FDTLATVGTGTFGRVHLVKEKTAK [PRKX] | 4.66 ± 0.22 | 4.54 ± 0.41 |  |  |
| TVNVQRTGQPLPQSIQQAMRYLRN [DLC1] | 3.17 ± 0.18 | 3.33 ± 0.23 |  |  |
| GVRESETEQGFGEDLEDLGAVAPP [NFE2L1] | 5.763 ± 0.026 | 5.9 ± 0.1 |  |  |
| TINPSKRITAAEALKHPWISHRST [CAMK2A] | 3.06 ± 0.23 | 3.21 ± 0.2 |  |  |
| THLEAQNRIKGCHDHLTLSVSRPE [PDLIM4] | 3.57 ± 0.18 | 3.66 ± 0.23 |  |  |
| SQVRALDRFQVPTTEVNAWLVHRD [NFE2L1] | 3.37 ± 0.47 | 3.33 ± 0.48 |  |  |
| SIEEILEEQRVEQQTKLEAEKLKV [LSM1] | 5.11 ± 0.34 | 5.2 ± 0.22 |  |  |
| SVDIWAIGCVFAELLTGQPLWPGK [CDKL4] | 2.6 ± 1.3 | 3.02 ± 0.97 |  |  |
| DLVLHTNYTATVRGLRGPNLTSPA [TNXB] | 2.79 ± 0.31 | 2.71 ± 0.32 |  |  |
| AAAEVGGGVGGSSRARSASSPRGM [ANKRD17] | 4.82 ± 0.34 | 5 ± 0.24 |  |  |
| RCHTVPCAGSTALQEPGEPQGPPA [PXN] | 4.89 ± 0.15 | 4.92 ± 0.25 |  |  |
| VSGKCEPIGCDGVLFSTHTLDKCG [ADAMTSL2] | 3.41 ± 0.4 | 3.35 ± 0.29 |  |  |
| MSVNVNRSVSDQFYRYKMPRLIAK [EIF5] | 2.52 ± 0.14 | 2.77 ± 0.29 |  |  |
| GNFPTMEVKPKDIIHVVKDQLIGQ [TENT5D] | 4.08 ± 0.33 | 3.98 ± 0.35 |  |  |
| DGAISAHKPLLICSCEWMAAMFGG [RHOBTB1] | 2.25 ± 0.29 | 2.3 ± 0.15 |  |  |
| RVDFEEFVELIGPKLREETAHMLG [CABP4] | 2.58 ± 0.25 | 2.73 ± 0.39 |  |  |
| KLDKKLKKMEQNKTAATRYRQKKR [ATF4] | 4.48 ± 0.16 | 4.42 ± 0.23 |  |  |
| IHSIPKGTEITIAFDFDYGNCKYK [KMT2E] | 2.19 ± 0.31 | 1.98 ± 0.32 |  |  |
| ILDAMAEETRQKQLLADEKMKQLT [TRIM35] | 4.52 ± 0.23 | 4.68 ± 0.21 |  |  |
| NTLRCQLGDRLNVEVDAAPAVDLN [KRT33B] | 4.47 ± 0.19 | 4.39 ± 0.22 |  |  |
| YEDGEVEEEADSCFGDDEDDSGTE [CDC34] | 5.61 ± 0.16 | 5.67 ± 0.12 |  |  |
| SVNEHTEEGESLLCLACSAGYYEL [ANKRD17] | 2.64 ± 0.38 | 2.93 ± 0.29 |  |  |

| Sequence | protein stability index [1] | protein stability index [2] | protein stability index [3] | protein stability index [4] |
| --- | --- | --- | --- | --- |
| QICRAQGLETLFSKAQELGGAGRE [ZSWIM9] | 3.64 ± 0.23 | 3.66 ± 0.26 |  |  |
| YPIYVIPEPPPVSFQPYHPLHFRG [TENT5D] | 2.35 ± 0.28 | 2.32 ± 0.37 |  |  |
| NPAPAAPCPLGEPKTQACSGSESP [MYCL] | 5.57 ± 0.23 | 5.63 ± 0.15 |  |  |
| LELGSTEVLLDHLKAHAEEKPPSG [PLAGL1] | 4.46 ± 0.28 | 4.94 ± 0.2 |  |  |
| LLSLKQNHEQEVNTLRCQLGDRLN [KRT33B] | 3.38 ± 0.16 | 3.46 ± 0.2 |  |  |
| KSYIFEGALGMSNRDSYFYAAIVA [VMA21] | 2.96 ± 0.66 | 2.6 ± 0.46 |  |  |
| NVSVMHKSLDNMPNDEHWKALSRK [FBXO33] | 4.19 ± 0.089 | 4.03 ± 0.14 |  |  |
| LLRFAQVFSQMIHLNETVKAPDIE [FEM1B] | 2.67 ± 1.1 | 2.46 ± 0.85 |  |  |
| SYKIEEISPSTLKNSLFPSPISSI [KCNK9] | 2.6 ± 0.21 | 2.7 ± 0.33 |  |  |
| QGHLRRLRSRYSVASFKFDAGEVS [MYORG] | 2.93 ± 0.26 | 3.27 ± 0.33 |  |  |
| SGRSGHNTRGTGSSSSGVLMVGPN [CSNK1G3] | 4.13 ± 0.24 | 4.18 ± 0.16 |  |  |
| IELEGISVMVMREILDYIFSGQIR [GAN] | 3.37 ± 0.23 | 2.86 ± 0.49 |  |  |
| LDSSEGSSQEDEDLGLSEGSSQDS [SPANXN3] | 5.66 ± 0.19 | 5.64 ± 0.23 |  |  |
| PPTVSQTPVIAATPVPTITANVTS [BRD3] | 4.83 ± 0.12 | 4.76 ± 0.18 |  |  |
| HFSQGSALILHQRIHSGEKPYGCV [ZNF24] | 2.24 ± 0.37 | 2.55 ± 0.47 |  |  |
| GSNEYTEGPSVVKRPAPRTAPRQE [SPRY1] | 4.9 ± 0.28 | 5.3 ± 0.17 |  |  |
| PGLLSLATTSASDSLKPEQLDIEE [TFE3] | 5.35 ± 0.23 | 5.55 ± 0.17 |  |  |
| SYRIHNGQKLVVPGLLGSMALSNH [FBXO3] | 2.35 ± 0.27 | 2.43 ± 0.31 |  |  |
| KQWGPLEREPVRGQCLDSTDQLEF [RTN2] | 4.45 ± 0.35 | 4.71 ± 0.2 |  |  |
| ISVQELMGCLGVAKEDGKADTKKR [SMOC2] | 3.88 ± 0.33 | 3.92 ± 0.59 |  |  |
